Laboratory results from patent US7056679 (ANTYRA, dated 2006).
No end group written: not given here.

T1: DGI-2 polypeptide (UniProt Q15004 1-111, limits assumed)
T1 construct: Soluble recombinant protein coated at 500 ng/well; vector tag of pIVEX2.3-MCS not described for this construct; also called KIAA0101
T1 sequence (looked up): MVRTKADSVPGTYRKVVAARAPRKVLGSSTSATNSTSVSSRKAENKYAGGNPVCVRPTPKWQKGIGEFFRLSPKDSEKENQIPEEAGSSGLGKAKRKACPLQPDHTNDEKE

T2: DGI-2 (UniProt Q15004 1-111, limits assumed)
T2 construct: Soluble recombinant DGI-2 made by in vitro translation (RTS, pIVEX2.3-MCS vector) and coated on plates for the ELISA; vector tag not described; also called KIAA0101; DGI-2 polypeptide
T2 sequence (looked up): T1 sequence (looked up)

B1: DGI-2-20F-PP-A22 (peptide)
peptide: VCSGGKGTWLEIPDRVRSSTAAAGAPVPYPDPLEPRP
B2: DGI-2-20F-PP-C3 (peptide)
peptide: LGRTFVWGTCLHLSVSRFGHAAAGAPVPYPDPLEPRP
B3: DGI-2-20F-PP-F10 (peptide)
peptide: VVHTRAWGSWAYGFVLRNRGAAAGAPVPYPDPLEPRP
B4: DGI-2-20F-PP-E6 (peptide)
peptide: EVFVSVWVFRFRVMPVTPGGTAAAGAPVPYPDPLEPRP
B5: DGI-2-20F-PP-C4 (peptide)
peptide: SIILAGCVWVMPCGQNLGGVAAAGAPVPYPDPLEPRP
B6: DGI-2-20F-PP-A6 (peptide)
peptide: VCGQRVARMQLNKTIRKLDSAAAGAPVPYPDPLEPRP
B7: DGI-2-20F-PP-C9 (peptide)
peptide: YAMSSRECGIRNSGLILSMWAAAGAPVPYPDPLEPRP
B8: DGI-2-20F-P0P-D6 (peptide)
peptide: GITGLFCLCLRSSQSIAAAGAPVPYPDPLEPRP
B9: DGI-2-20F-PP-F1 (peptide)
peptide: ERVSKCVGRGSGRSVGQFGGAAAGAPVPYPDPLEPRP
B10: DGI-2-20F-PP-B3 (peptide)
peptide: RGSLLLTLPRLSGAVGTAYGAAAGAPVPYPDPLEPRP
B11: DGI-2-20F-PP-D9 (peptide)
peptide: VRAVYSRDAYNEVGRWMRVGIAAAGAPVPYPDPLEPRP
B12: DGI-2-20F-PP-C7 (peptide)
peptide: SSVWATWGSDLRTFGSVGFLAAAGAPVPYPDPLEPRP
B13: DGI-2-20F-PP-B2 (peptide)
peptide: RSYPRLCKQKGGVIGRMLPGAAAGAPVPYPDPLEPRP
B14: DGI-2-20F-PP-H10 (peptide)
peptide: GRAGTSMTELVAWGFVQRVGAAAGAPVPYPDPLEPRP
B15: DGI-2-20F-PP-A6 (peptide)
peptide: VCGQRVARMQLNKTIRKLDS
notes: on M13 phage, pIII fusion with E-tag
B16: DGI-2-40F-3-D1044 (peptide)
peptide: DRVARLATPTAGTMAAGSLGYERTVGCDSQDWFRCVVEGL
notes: as for B15
B17: DGI-2-20R-3-C2 (peptide)
peptide: RDTTSQWSWISRGWEFPGWR
notes: as for B15
B18: DGI-2-20R-3-B10 (peptide)
peptide: QLDCLVWGLPGLRCDRPLEQ
modifications: not fully specified (bridges); cysteine pairing not given here
notes: as for B15
B19: DGI-2-20R-3-D127 (peptide)
peptide: SWACGLLWPGECGSQVARRG
modifications: not fully specified; cysteine pairing not given here
notes: as for B15
B20: DGI-2-20R-4-G22 (peptide)
peptide: VSFAHDWGRWWYQWEVG
notes: as for B15
B21: DGI-2-20R-3-B1 (peptide)
peptide: WWERFVWGRPVDDGVVVMAT
notes: as for B15
B22: DGI-2-20F-3-B5 (peptide)
peptide: RERWGTAWNLWTEGVVDVRP
notes: as for B15
B23: DGI-2-40F-4-F97 (peptide)
peptide: QVGGMTQVGATVLSVVTGRGSCDGEDAWYPPGVTVGLGLC
notes: as for B15
B24: DGI-2-20R-3-A8 (peptide)
peptide: RSIRLQLIDEACQFFDGLCT
modifications: not fully specified; cysteine pairing not given here
notes: as for B15
B25: DGI-2-20R-3-A11 (peptide)
peptide: WAASCFWGHVALGCGRNGQG
modifications: not fully specified (bridges); cysteine pairing not given here
notes: as for B15
B26: DGI-2-20F-PP-F1 (peptide)
peptide: ERVSKCVGRGSGRSVGQFGG
notes: as for B15
B27: DGI-2-20R-4-H112 (peptide)
peptide: SLECWAMPGMVVRLVGCDGP
modifications: not fully specified (bridges); cysteine pairing not given here
notes: as for B15
B28: DGI-2-20R-3-C3 (peptide)
peptide: TIDVARRFGYGWWDLWLDGD
notes: as for B15
B29: DGI-2-20R-4-E6 (peptide)
peptide: VLGADAGMIWFMDGCGIRCR
modifications: not fully specified; cysteine pairing not given here
notes: as for B15
B30: DGI-2-20R-4-G99 (peptide)
peptide: DQRVVGSGWFERLRNWYDRA
notes: as for B15
B31: DGI-2-20R-4-G122 (peptide)
peptide: RDTMCGSVSWGIPGCEYSGM
modifications: not fully specified; cysteine pairing not given here
notes: as for B15
B32: DGI-2-20R-3-A1 (peptide)
peptide: EGNWFCAVFRGFCVGDRGPE
modifications: not fully specified (bridges); cysteine pairing not given here
notes: as for B15
B33: DGI-2-20R-3-A2 (peptide)
peptide: QMSRVAFSPGESWRRWVEGV
notes: as for B15
B34: DGI-2-20R-3-D9 (peptide)
peptide: WGCVFRQWASGSGAGCARRH
modifications: not fully specified; cysteine pairing not given here
notes: as for B15
B35: DGJ-2-20R-3-A10 (peptide)
peptide: RRILPWSFPGCGRMC
modifications: not fully specified; cysteine pairing not given here
notes: as for B15

What follows are binders tested against T1, DGI-2 polypeptide (assay: phage ELISA).
Description: (§1) For analysis of individual target binders, colonies were picked and phage prepared as described above using helper phage, M13KO7. Ninety-six-well microtiter plates were coated with 500 ng/well of specific target protein, 500 ng/well lactate dehydrogenase (LDH) irrelevant or non-specific target, 500 ng/well of positive control antibody raised against ETAG, and negative control of non-fat milk powder-PBS 2% at 4° C. overnight. Plates were then blocked with 350 microliters/well PBS containing 2% non-fat milk for 1 hr at room temperature. One hundred microliters per well of phage from isolated clones were added and plates were incubated at room temperature for 2 hr after centrifuging samples for 20 minutes at 3500 rpm at 4° C. The phage solution was then removed, and the wells were washed three times with PBS at room temperature. Antibody raised against M13 conjugated to horseradish peroxidase (Pharmacia) was diluted 1:3000 in PBS-Tween and added to each well (100 µl/well). Incubation was for 1 hr at room temperature, followed by washing with PBS-(0.5%) Tween 3 times as described. Color was developed by addition of ABTS solution (100 µl/well; Boehringer, Indianapolis, Ind.). Plates were analyzed at 405 nm. A clone was considered "positive" if the $A405$ of the well was $\geq$2-fold over background.
B1 was tested, and the “DGI-2 (OD)” value was 3.3 OD and the DGI-2/LDH was 3.1 ratio.
B2 was tested, and the “DGI-2 (OD)” value was 5.3 OD and the DGI-2/LDH was 5.1 ratio.
B3 was tested, and the “DGI-2 (OD)” value was 3.5 OD and the DGI-2/LDH was 2.8 ratio.
For B4, the “DGI-2 (OD)” value was 3 OD and the DGI-2/LDH was 2.6 ratio.
With B5 the “DGI-2 (OD)” value was 3 OD and the DGI-2/LDH was 3.2 ratio.
For B6, the “DGI-2 (OD)” value was 3.1 OD and the DGI-2/LDH was 2.8 ratio.
B7 was tested, and the “DGI-2 (OD)” value was 3.5 OD and the DGI-2/LDH was 3.9 ratio.
In the case of B8, the “DGI-2 (OD)” value is reported as 3.3 OD and the DGI-2/LDH is reported as 3.2 ratio.
In the case of B9, the “DGI-2 (OD)” value is reported as 3 OD and the DGI-2/LDH is reported as 3.4 ratio.
For B10, the “DGI-2 (OD)” value was 3.4 OD and the DGI-2/LDH was 3 ratio.
B11 was tested, and the “DGI-2 (OD)” value was 2.9 OD and the DGI-2/LDH was 2.9 ratio.
B12 was tested, and the “DGI-2 (OD)” value was 3 OD and the DGI-2/LDH was 2.6 ratio.
For B13, the “DGI-2 (OD)” value was 3.3 OD and the DGI-2/LDH was 2.9 ratio.

Each binder was assayed against T3, lactate dehydrogenase (LDH) (assay: phage ELISA).
T3 construct: Coated at 500 ng/well as non-specific target; also called LDH polypeptide
Description: as §1
With B14 the “LDH (OD)” value was 0.7 OD.
With B1 the “LDH (OD)” value was 1 OD.
For B2, the “LDH (OD)” value was 1 OD.
B3 was tested, and the “LDH (OD)” value was 1.3 OD.
For B4, the “LDH (OD)” value was 1.2 OD.
B5 was tested, and the “LDH (OD)” value was 0.9 OD.
With B6 the “LDH (OD)” value was 1.1 OD.
With B7 the “LDH (OD)” value was 0.9 OD.
For B8, the “LDH (OD)” value was 1 OD.
In the case of B9, the “LDH (OD)” value is reported as 0.9 OD.
B10 was tested, and the “LDH (OD)” value was 1.1 OD.
B11 was tested, and the “LDH (OD)” value was 1 OD.
With B12 the “LDH (OD)” value was 1.1 OD.
In the case of B13, the “LDH (OD)” value is reported as 1.1 OD.

The binders below were run against T4, antibody raised against ETAG (assay: phage ELISA).
T4 construct: Coated at 500 ng/well; also called E-tag antibody
Description: as §1
B14 was tested, and the “ETAG (OD)” value was 13 OD.
With B1 the “ETAG (OD)” value was 44.1 OD.
B2 was tested, and the “ETAG (OD)” value was 39.9 OD.
For B3, the “ETAG (OD)” value was 42.5 OD.
For B4, the “ETAG (OD)” value was 4.1 OD.
B5 was tested, and the “ETAG (OD)” value was 36.1 OD.
With B6 the “ETAG (OD)” value was 35.1 OD.
With B7 the “ETAG (OD)” value was 31.6 OD.
In the case of B8, the “ETAG (OD)” value is reported as 5.7 OD.
For B9, the “ETAG (OD)” value was 11.1 OD.
For B10, the “ETAG (OD)” value was 11.7 OD.
In the case of B11, the “ETAG (OD)” value is reported as 9 OD.
In the case of B12, the “ETAG (OD)” value is reported as 11 OD.
For B13, the “ETAG (OD)” value was 35.9 OD.

What follows are binders tested against T2, DGI-2 (assay: phage ELISA, coated DGI-2).
Description: as §1
B15: binds.
B16: binds.
B17: binds.
B18: binds.
B19: binds.
B20: binds.
B21: binds.
B22: binds.
B23: binds.
B24: binds.
B25: binds.
B26: binds.
B27: binds.
B28: binds.
B29: binds.
B30: binds.
B31: binds.
B32: binds.
B33: binds.
B34: binds.
B35: binds.
